Key:
[1] = biological target: T1, Y120A-SSB-2ΔSB (murine SSB-2 residues 12-224 with tyrosine 120 mutated to alanine) (mouse, UniProt O88838 12-224); assay: ITC
T1 construct: also called SSB-2-Y120A
T1 chain: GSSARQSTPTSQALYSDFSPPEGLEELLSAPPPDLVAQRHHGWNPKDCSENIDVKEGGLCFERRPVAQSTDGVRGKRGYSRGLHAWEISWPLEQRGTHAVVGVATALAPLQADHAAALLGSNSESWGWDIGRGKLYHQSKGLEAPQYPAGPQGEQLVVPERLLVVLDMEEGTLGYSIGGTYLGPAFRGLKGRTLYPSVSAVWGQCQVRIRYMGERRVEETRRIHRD
Description: (§1) Wild-type and mutant iNOS peptides (Table 2), corresponding to Lys19-Thr31 of mouse iNOS, were synthesized by GL Biochem (Shanghai) Ltd. These peptides were N-terminal acetylated and C-terminal amidated. All ITC measurements were carried out at 25° C. using a Microcal omega VP-ITC (Microcal Inc., Northampton, Mass.). SSB-2ΔSB was dialysed against buffer (100 mM TrisHCl, 150 mM NaCl, pH 8.0), and wild-type and mutant iNOS N-terminal peptides were prepared in the same buffer from 5 mM stocks. Solutions of 5 to 10 μM SSB-2ΔSB in the cell were titrated by injection of a total of 290 μL of 50-200 μM of iNOS peptides. Data analysis was performed using the evaluation software, MicroCal Origin version 5.0. All curves were fitted using the nonlinear least-squares fitter and the “One Set of Sites” model.
(§2) Mutation of Glu21 had no effect on SSB-2:iNOS peptide binding. […] Binding of an SSB-2-SPRY domain in which tyrosine 120 had. been mutated to alanine (Y120A-SSB-2ΔSB) was assessed by ITC.

[2] = biological target: T2, SSB-2ΔSB (recombinant murine SSB-2 SPRY domain, residues 12-224) (mouse, UniProt O88838 12-224); assay: ITC, 25 C, peptide injected into SSB-2ΔSB
T2 construct: 226 residues in total; expressed as GST fusion in E. coli, GST cleaved off with thrombin; 15N-labelled for NMR; coupled to NHS-Sepharose for pull-downs; also called SPSB2
T2 sequence: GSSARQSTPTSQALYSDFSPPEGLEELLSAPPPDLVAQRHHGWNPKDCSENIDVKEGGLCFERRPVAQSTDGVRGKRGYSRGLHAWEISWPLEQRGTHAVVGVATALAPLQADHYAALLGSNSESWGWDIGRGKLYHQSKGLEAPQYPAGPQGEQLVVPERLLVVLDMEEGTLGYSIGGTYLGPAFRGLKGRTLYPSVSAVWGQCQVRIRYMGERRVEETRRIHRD
Description: (§3) FIG. 3. Typical ITC raw data and titration curves for SSB-2 and iNOS peptide interactions. Titration curves were fitted using the “One Set of Sites” model in MicroCal Origin.
as §1

[3] = biological target: T1, Y120A-SSB-2ΔSB (murine SSB-2 residues …); assay: ITC, 25 C, wild-type peptide with Y120A-SSB-2ΔSB
Description: as §3, §1

[4] = biological target: T2, SSB-2ΔSB (recombinant murine SSB-2 SPRY …); assay: ITC
Description: as §1, §2

[5] = biological target: T3, full-length iNOS protein (endogenous, from LPS/IFNγ-treated mouse bone marrow-derived macrophages) (mouse, UniProt P29477 1-1144); assay: anti-Flag co-immunoprecipitation, anti-iNOS Western blot
T3 construct: Not purified: present in macrophage lysates; Detected by Western blot with anti-iNOS antibody; also called NOS2; inducible nitric oxide synthase
T3 sequence: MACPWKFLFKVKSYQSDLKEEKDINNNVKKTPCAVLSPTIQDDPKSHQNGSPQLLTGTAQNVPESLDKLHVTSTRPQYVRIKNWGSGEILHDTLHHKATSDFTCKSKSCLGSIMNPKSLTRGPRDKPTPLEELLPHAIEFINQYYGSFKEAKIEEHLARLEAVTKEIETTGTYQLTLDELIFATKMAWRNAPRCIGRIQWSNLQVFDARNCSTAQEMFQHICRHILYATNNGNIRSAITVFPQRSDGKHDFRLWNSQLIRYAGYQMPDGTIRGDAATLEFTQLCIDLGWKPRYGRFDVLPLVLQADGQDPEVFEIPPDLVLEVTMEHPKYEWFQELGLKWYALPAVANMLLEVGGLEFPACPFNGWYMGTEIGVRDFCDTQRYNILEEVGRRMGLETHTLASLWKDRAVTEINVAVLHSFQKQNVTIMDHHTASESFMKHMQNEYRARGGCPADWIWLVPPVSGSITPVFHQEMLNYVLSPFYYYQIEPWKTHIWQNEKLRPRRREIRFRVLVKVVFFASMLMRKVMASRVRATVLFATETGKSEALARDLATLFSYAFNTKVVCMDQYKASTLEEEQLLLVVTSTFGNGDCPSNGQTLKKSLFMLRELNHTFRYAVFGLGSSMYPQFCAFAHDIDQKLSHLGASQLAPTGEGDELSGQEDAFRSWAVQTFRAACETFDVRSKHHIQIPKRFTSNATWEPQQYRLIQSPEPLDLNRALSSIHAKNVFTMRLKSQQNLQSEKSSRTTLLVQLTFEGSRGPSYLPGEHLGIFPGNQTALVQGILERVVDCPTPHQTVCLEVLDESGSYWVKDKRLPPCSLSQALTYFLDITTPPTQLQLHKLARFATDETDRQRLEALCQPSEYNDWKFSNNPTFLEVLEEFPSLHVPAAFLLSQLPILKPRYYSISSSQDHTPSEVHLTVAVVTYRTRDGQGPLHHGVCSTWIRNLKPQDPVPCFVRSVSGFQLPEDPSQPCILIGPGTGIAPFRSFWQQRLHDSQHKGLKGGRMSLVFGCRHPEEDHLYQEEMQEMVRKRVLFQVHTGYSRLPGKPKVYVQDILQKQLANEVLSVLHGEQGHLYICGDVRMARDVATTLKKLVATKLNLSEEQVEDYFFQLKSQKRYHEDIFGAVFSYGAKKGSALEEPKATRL
Text: (§4) FIG. 6. Interaction between iNOS and SSB-1, -2, and -4 and SSB-2 residues affecting 10 iNOS binding. (A) iNOS interacts preferentially with SSB-2 and SSB-4. 293T cells were transiently transfected with vector alone or cDNA encoding either Flag-tagged SSB-1, SSB-2, SSB-3 or SSB-4. Cells were lysed, and mixed with BMDM lysates from cells induced to express iNOS. Flag-tagged proteins were immunoprecipitated using anti-Flag antibodies (M2-beads) and separated by SDSPAGE. Co-immunoprecipitation of iNOS was detected by Western blot with anti-iNOS antibodies (upper panel). Membranes were stripped and reprobed with rat anti-Flag antibodies (middle panel). Comparative expression of Flag-tagged proteins in 293T lysates is shown by Western blot (lower panel). (B) SSB-2 residues affecting iNOS binding. Residues in the SSB-2 SPRY domain were mutated to Ala or Phe (for Y120) based on SSB-2 structure and sequence conservation. 293T cells 20 were transiently transfected with cDNA encoding Flag-tagged wild-type or mutant SSB-2. Cells were lysed, and mixed with BMDM lysates from cells induced to express iNOS. Flag-tagged proteins were immunoprecipitated using anti-Flag antibodies and separated by SDS-PAGE. Coimmunoprecipitation of iNOS was detected by Western blot with anti-iNOS antibodies.

[6] = biological target: T3, full-length iNOS protein (endogenous, …); assay: anti-Flag co-immunoprecipitation from mixed 293T and BMDM lysates, anti-iNOS Western blot
Text: as §4, with “293T cells 20 were transiently transfected with cDNA encoding Flag-tagged wild-type or mutant SSB-2. Cells were lysed, and mixed with BMDM lysates from cells induced to express iNOS. Flag-tagged proteins were immunoprecipitated using anti-Flag antibodies and separated by SDS-PAGE.” left out
To investigate whether other SSB family members were able to interact with iNOS, 293T cells were transiently transfected with cDNA expressing SSB-1, SSB-2, SSB-3 or SSB-4 with an N-terminal Flag-epitopetag. […] SSB proteins were immunoprecipitated using anti-Flag antibodies coupled to Sepharose and association of iNOS analysed by Western blot. […]

[7] = biological target: T3, full-length iNOS protein (endogenous, …); assay: anti-SSB-2 immunoprecipitation from BMDM, anti-iNOS Western blot (FIG. 5B)
Description: FIG. 5. SSB-2 interacts with endogenous full-length iNOS protein. (A) SSB-2 interacts with full-length iNOS and this requires tyrosine 120 in the SPRY domain peptide-binding surface. Bone marrow-derived macrophages (BMDM) from C57BL/6 mice were incubated with 20 ng/ml IFNγ and 1 μg/ml LPS for 16 h, lysed and incubated with NHS-sepharose beads coupled with recombinant SSB-2 or SSB-2-Y120A proteins, or with uncoupled NHS-sepharose beads (CON), for 3 h at 4° C. Associated proteins were then separated by SDS-PAGE and transferred to PVDF membrane. iNOS was detected by Western blot with specific anti-iNOS antibodies (upper panel). Equivalent amounts of SSB-2 and SSB-2-Y120A were confirmed by reprobe with anti-SSB-2 antibodies (lower panel). (B) Interaction between endogenous iNOS and SSB-2 proteins. Bone marrow-derived macrophages from SSB-2-deficient mice (Ssb-2^{-/-}) or wild-type littermate controls (Ssb-2^{+/+}) were incubated with (+) or without (−) 20 ng/ml IFNγ and 20 ng/ml LPS for 16 h, lysed and endogenous SSB-2 proteins immunoprecipitated using rabbit anti-SSB-2 antibody coupled to NHS-Sepharose. Immunoprecipitates were separated by SDS-PAGE and associated iNOS protein detected by Western blot with specific antibodies (upper panel). […]

B1: iNOS N-terminal peptide I, wild-type, Ac-KEEKDINNNVKKT-NH2 (peptide)
peptide: Ac-KEEKDINNNVKKT-NH2
notes: Synthetic peptide (GL Biochem); also called wild-type iNOS peptide; iNOS peptide
[1]
  fold reduced affinity against SSB-2ΔSB: ~5000 fold
[2]
  Kd: 13.3 nM
[3]
  Kd: 76300 nM

B2: iNOS N-terminal peptide XII, Ac-KEEKDINNNAKKT-NH2 (peptide)
peptide: Ac-KEEKDINNNAKKT-NH2
[4]
  fold lower binding affinity than the wild-type peptide: 2 to 4 fold
[2]
  Kd: 56.8 nM

B3: iNOS N-terminal peptide XV, Ac-KEEADINNNAKAT-NH2 (peptide)
peptide: Ac-KEEADINNNAKAT-NH2
[4]
  fold decrease of binding affinity against the wild-type peptide: ~24 fold
[2]
  Kd: 311 nM

B4: iNOS N-terminal peptide XIII, Ac-KEEKDINNNVKAT-NH2 (peptide)
peptide: Ac-KEEKDINNNVKAT-NH2
[4]
  fold lower binding affinity than the wild-type peptide: 2 fold
[2]
  Kd: 29.8 nM

B5: Flag-tagged SSB-2 mutant Y120 to phenylalanine (other)
chain: DYKDDDDKMGQTALARGSSSTPTSQALYSDFSPPEGLEELLSAPPPDLVAQRHHGWNPKDCSENIDVKEGGLCFERRPVAQSTDGVRGKRGYSRGLHAWEISWPLEQRGTHAVVGVATALAPLQADHFAALLGSNSESWGWDIGRGKLYHQSKGLEAPQYPAGPQGEQLVVPERLLVVLDMEEGTLGYSIGGTYLGPAFRGLKGRTLYPSVSAVWGQCQVRIRYMGERRVEEPQSLLHLSRLCVRHALGDTRLGQISTLPLPPAMKRYLLYK
[5]
  binding result: no binding

B6: Flag-tagged SSB-3 (murine, expressed in 293T cells) (other, mouse)
chain: DYKDDDDKMARRTRSSRAWHFVLSAARRDTDARAVALAGSSNWGYDSDGQHSDSDSDPEYSSLPPSIPSAVPVTGESFCDCEGQNEATFCNSLHTAHRGKDCRCGEEDEDFDWVWDDLNKSSATLLSCDNRKVSFHMEYSCGTAAIRGTKELGDGQHFWEIKMTSPVYGTDMMVGIGTSDVDLDKYHHTFCSLLGRDEDSWGLSYTGLLHHKGDKTSFSSRFGQGSIIGVHLDTWHGTLTFFKNRKCIGVAATRLQNRRFYPMVCSTAAKSSMKVIRSCASSTSLQYLCCYRLRQLRPNSGDTLEGLPLPPGLKQVLHNKLGWVLSMNCNHWKSPVPPPGTATPGAESLETRPCQRKRCRRS
notes: also called SPSB3
[6]
  binding result: no binding

B7: endogenous SSB-2 protein (mouse bone marrow-derived macrophages) (other)
chain: MGQTALARGSSSTPTSQALYSDFSPPEGLEELLSAPPPDLVAQRHHGWNPKDCSENIDVKEGGLCFERRPVAQSTDGVRGKRGYSRGLHAWEISWPLEQRGTHAVVGVATALAPLQADHYAALLGSNSESWGWDIGRGKLYHQSKGLEAPQYPAGPQGEQLVVPERLLVVLDMEEGTLGYSIGGTYLGPAFRGLKGRTLYPSVSAVWGQCQVRIRYMGERRVEEPQSLLHLSRLCVRHALGDTRLGQISTLPLPPAMKRYLLYK
notes: Immunoprecipitated with rabbit anti-SSB-2 antibody coupled to NHS-Sepharose; also called SPSB2
[7]
  binding result: binds
